# Measured values published in the nanobody polyreactivity screen of Harvey et al. (2022).
# Test: yeast display, Sf9 membrane polyspecificity reagent, FACS + sequencing; frameworks hold sequencing errors
# How it was run: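 Genes from sorted yeast were amplified by colony PCR, read by MiSeq 2 × 250 sequencing and filtered on CDR length. These cells carried a synthetic nanobody library in Saccharomyces cerevisiae BJ5465 and were sorted by FACS into low and high (top ~1%) gates on anti-HA and streptavidin fluorescence. Polyreactivity is labelled according to the gate of origin.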
row,Sequence,polyreactivity (PSR sort gate)
1,EEELVESGGGLVQAGGSLRLSCAASGRTFVYNAMGWYRQAPWKERELVAAITSGDSTYYADSVKGRFTISRDNAKNTVYLQMNSLKPEDTAVYYCATDYSGIFYWYDYWGQGTQVTVSS,low polyreactivity
2,EEELVESGGGLVQAGGSLRLSCAASGSIFYYNAMGWYRQAPGKERELVAAISRGGTTNYADSVKGRFTISRDNAKNTVYLQMNSLKPEDTAVYYCAAKAYDYYGPVYYWGQGTQVTVSS,high polyreactivity
3,EEELVESGGGLVQAGGSLRLTCAASGFIFAYNAMGWYRQAPGKEREFVAAISRSGGSTYYADSVKGRFTISRDNAKNTVYLQMNSLKPEDTAVYYCAARRSVGGYGYWGQGTQVTVSS,high polyreactivity
4,EEELVESGGGLVQAGGSSLRLSCAASGFIFVSNAMGWYRQAPGKERELVASIRWSDGSTFYADSVKGRFTISRDNAKNTVYLQMNSLKPEDTAVYYCNAVYEHRRVGWVTIDYGYWGQGTQVTVSS,low polyreactivity
5,EVHLLESGGGLVQAGGSLRLSSAASGFTFACNAMGWYRQAPGKERELVAALTWGDNSTYYADSVKGRFTISRDNAKNTVYLQMNSLKQEDTAVYYCGARVTHWYYLFGYDYWGQGTQVTVSS,low polyreactivity
6,EVQLVESGGGLVQAGGSLRLSCAASGFFYPNNAMGWYRQAPGKERELVARISYGGGDTHYADSVKGRFTISRDNAKNTVYLQMNSLKPEDTAVYYCAVKDGQDDYWGQGTQVTVSS,low polyreactivity
7,EVQLVESGGGLVQAGGSLRLSCAASGRIFYTNTMGWYRPAPGKERELVATGSTYYADSVKGRFTISRDNAKNTVYLQMDSLKPEDTAVYYCAKRGDFLTKRYESGSAASDYLGQGTQVTVSS,low polyreactivity
8,EVQLVESGGGLVQAGGSLRLSCAASGRTIGFNGMAWYRQAPGKERELFAAITRSGGNTYADSVKGRFTISRDNAKNTVYLQMNSLNPEDSAVYYCATTYVGETLTGPGDYWGQGTQVTVSS,low polyreactivity
9,EVQLVESGGGLVQPGGILRVSCAASGYIYSRYRKGWYRQAPGKRREFVAAISGGSSTNYADSVKGRFTISRDNSKKTVYLQMNSLRAEDTAVYYCADSKIDSDPRVYWGQGYQVTVSS,low polyreactivity
10,EVQLVESGGGLVQTGGSLRLSCAASGYIYSRYRMGWYRQAPGKGREIVAAISGGSSTNYADSVKGRFTISRDNSNNTVYLQMNSLRAEDTAVYYCAAYKIDSDTRVYWGQGTQVTVSS,low polyreactivity
11,EVQLVESGGGVDQAVGSLRLSCAASGSIFLFYARGWYRQARGKEMELVARISFRSTSTYYADSVKGRFTISLDNAKYTVSLQMNSLKPEDTAVYYCATRTWYGYLYDYWGQGTQVTVSS,high polyreactivity
12,EVQLVESGVGLVQAGGSLRLSCAASASIFLSYAMGCYRQAPGKVRELVDAISRRGGSTYYADSVKGRFTISRDFAKNTVYLQMNSLKPEDTAVYYCAADLTGPYDYWGQGTQVTVSS,high polyreactivity
13,EVQRVESGGGLVQAGCSLRLSCAASGINFSIYAMGWYRQAPGKERELVADITYSGGRTYYADSVKGRFTISRDNAKNTVYLQLYSLKPEDTAVYYCAAVGYGDYYWGQGTQVTVSS,high polyreactivity
14,HDQLVESGGGLLQAGGSLRLSCAASGITLYRYVMGWYRQAPGKERELVAYIAGRGTSTYYSDSVKGRFTISRDHAKNTVYLQMNSLKPEDTAVYFCNAEYTKTGALVIPYTYYYAEDYWGQGTQVTVSS,low polyreactivity
15,HDQLVESGGGLVQAGGSLRLSCAASGFTFLDYAMGWSRKAPGKERELVASISSSGGSTRYADSVKGRFTISRDNAKNTVYLQMKSLKPQDTAVYYCNAQIAEVPNDYWGQGTPVTVSS,low polyreactivity
16,HDQLVETGGGLVQAGGSLRLSCAASGFTFRAYAMGWYRQAPGKEREFVAAISRRGGSTSYADSVKGRFTISRDNAKNTVYLQMNSLKPEDTAVYYCAATYQILTTSAHDSWGQGTQVTVSS,high polyreactivity
17,HDQRVESGGGLVQAGGSLRLSCAASGITFASYAMGWYRQAPGKDRELVAAISWGGSRTYYADSVKGRFTISRDTAKISVYLQMNSLKPEDTAVYYCNAHTRYGPDYSYYYWGQGTQVTVSS,high polyreactivity
18,HGQLVESAAGLVQAGGSLRLSGAASGLIFYDNMGWYRQAPAKDRELVAAISSSGGSTSYADSVKGRFTISRDNAKNTFYLQMNSLKPEDTAVYYCAADSYPAYLGFVGFDYWGLGTQVTVSS,low polyreactivity
19,HGQLVESGGGLVQAGGSLRLSCAASGSHLSNYAMGWYREAPGKERELVAAISLSVGSTYYADSVKGRFTISRDNAKNTVYLQMNSLKPEDTAVYYCAADDFYSGPFRGDYWGQGTQVTVSS,low polyreactivity
20,HLHLPERVGGLVHAGGSLRLSSAASGYISWAGYMGWYRQPPGKERELVATISYGTSTSYADSVKGRFTISRDNAKNSVYLQMNSLKPEDSAVYYCNADWVFTWYDYPNDKYDYWGQGTQVTVSS,low polyreactivity
21,HVKLVESGGGLVQAGGCLRLSCAASGSNFFHNAMGWYRQAPGKERELVATISWRSASTYYADSVKGRFTISRDNAKKTVYLQMNSLKPEDTAVYYCAAKLHYRQYYYRYGYDYWGQGTQVTVSS,high polyreactivity
22,HVPLVESGGGLVQAGGSLRLSCAASGFTFRANGMGWYRQAPGKERELVATIPSGGTTNYADSVKGRFTISRDNAKKTVYLQMNSLKPEDNAVYDCAASLGANGFQGRMYYWGQGTQVTVSS,low polyreactivity
23,HVQHVESGGGLVQAGGSLRLSCAASGLIFGVNAMGWYRQAPGKERELVATITSGTSTYYADSVKGRFTISRDNAKNTVYLQMNSLKPEDNAVSYCAVRNGDSWYYYWGQGTQVTVSS,low polyreactivity
24,HVQHVESGGGLVQAGGSLRVSCAASGSTFYYNAMGWYRQAPGKERELVARISRSGASTYYADSVKGRFTISRDIAKNSVYLQMNSLKPEDTAVYYCATRNLGHERWYYYWGQGTQVTVSS,high polyreactivity
25,HVQLEESGGGLVQAGGSLRLSFAASGSIRKYYAMGSYIQAPAKERELDAAISGSGSTTYYADSVKGRFTISRDNAKNTVYLELNSLKPEDTAVYYCAAVYAFGNRYAYGSDSWGQGTQVTVSS,low polyreactivity
26,HVQLEESGVGLVQAGGSLRVSCAASGSTFGYYRMGGYRQAPGKERELVAAISWRGGSTYYADSVKGRFTISRDNAMNTVYCQMNSLKPEDTAVYYCAAPVGNYGSIDYWGQVTQVTVSS,low polyreactivity
27,HVQLQESGGGLVQAGGSLRLSCAASGNISYSRNMGWYRQAPGKERELVAAIDRGAITYYADSVKGRFTISRDNATNTVYLQIYSLKPEDTAVYYCAAEYHDRWDHRYWGQGTQVTVSS,high polyreactivity
28,HVQLQESGGGLVQAGGSLRLSCAASGSIFQATYMGWYRQAPGKEREFVASITYGSITNYADSVKGRFTIGRDNPKDTLYLQMNSLKPEDTAVYYCAVDRHYIPAFHYWGQGTQVTVSS,low polyreactivity
29,HVQLQESGGGLVQAGGSLRLSCAASGSISRNYDMGWYRQAPGKEREFVAGISGGAITYYADSVKGRFTISRDNAKNTVYLQMNSLKPEDTAVYYCAADTGVYQYHSYWGQGTQVTVSS,low polyreactivity
30,HVQLVESGAGLVQAGGSLRLSCAASGSIFGFYAMGWYRQAPGKERELVAAISSSGDSTYADSVKGRFTISRDNAKNTVYLQMNSLKPEDTAVYYCAADEDSRNWGQGTQVTVSS,high polyreactivity
